Experimental data reported in paper PMC4956467.

B1: 42-mer ssDNA, viral U5 end of 3'-LTR (ssDNA)
DNA: TCCCTCAGACCCTTTTAGTCAGTGTGGAAAATCTCTAGCAGT

What was measured:
Assay in all cases: BLI
[1] = molecular target: HIV-1 viral infectivity factor (Vif), full length, refolded, biotinylated (HIV-1) (UniProt P12504)
A3Fc-CD2 Y308A = A3Fc-CD2 Y308A (human, UniProt Q9HC16 197-221+Q8IUX4:220-373, Y308A;internal_change)
A3Fc-CD2 Y314A = A3Fc-CD2 Y314A (human, UniProt Q9HC16 197-221+Q8IUX4:220-373, Y314A;internal_change)
A3Fc-CD2 Y307A = A3Fc-CD2 Y307A (human, UniProt Q9HC16 197-221+Q8IUX4:220-373, Y307A;internal_change)
A3Fc-CD2 W310A = A3Fc-CD2 W310A (human, UniProt Q9HC16 197-221+Q8IUX4:220-373, W310A;internal_change)
A3Fc-CD2 D313A = A3Fc-CD2 D313A (human, UniProt Q9HC16 197-221+Q8IUX4:220-373, D313A;internal_change)
A3Fc-CD2 F309A = A3Fc-CD2 F309A (human, UniProt Q9HC16 197-221+Q8IUX4:220-373, F309A;internal_change)

Row | Molecule | Kd [1] | Kd (A3Fc-CD2 Y308A) | Kd (A3Fc-CD2 Y314A) | Kd (A3Fc-CD2 Y307A) | Kd (A3Fc-CD2 W310A) | Kd (A3Fc-CD2 D313A) | Kd (A3Fc-CD2 F309A)
1 | chimeric A3F C-terminal domain (A3Fc-CD2), wild type (from UniProt Q9HC16 197-221; Q8IUX4 218-373) (domain or fragment) | 1.1 µM |  |  |  |  |  | 
2 | A3Fc-CD2 L263A (from UniProt Q9HC16 197-221; Q8IUX4 218-373) (domain or fragment) | 1.1 µM |  |  |  |  |  | 
3 | B1 |  | 18 µM | 68 µM | 410 µM | 27 µM | 220 µM | 31 µM
